Experiment [1] concerns the target T1, monkey CD3D&3E (ACRO, CDD-C52W4) (cynomolgus monkey, UniProt Q95LI8 22-105; Q95LI5 22-117).
T1 construct: bought CD3 delta/epsilon protein; also called cynomolgus monkey CD3
Description: SPR Biacore 8K, Ab captured on Protein A. The gist of the method: (§1)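 Antibodies captured on a Protein A chip for 18 s; DLL3 or CD3D&3E antigen flowed 180 s, then 600 s dissociation, with real-time detection. Regeneration used 10 mM glycine-HCl pH 1.5 between cycles. Kinetics were obtained by 1:1 model fitting.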

Experiment [2] has as its target T2, human DLL3 (ACRO, DLL3-H52H4) (human, UniProt Q9NYJ7 27-492).
T2 construct: Bought
T2 sequence: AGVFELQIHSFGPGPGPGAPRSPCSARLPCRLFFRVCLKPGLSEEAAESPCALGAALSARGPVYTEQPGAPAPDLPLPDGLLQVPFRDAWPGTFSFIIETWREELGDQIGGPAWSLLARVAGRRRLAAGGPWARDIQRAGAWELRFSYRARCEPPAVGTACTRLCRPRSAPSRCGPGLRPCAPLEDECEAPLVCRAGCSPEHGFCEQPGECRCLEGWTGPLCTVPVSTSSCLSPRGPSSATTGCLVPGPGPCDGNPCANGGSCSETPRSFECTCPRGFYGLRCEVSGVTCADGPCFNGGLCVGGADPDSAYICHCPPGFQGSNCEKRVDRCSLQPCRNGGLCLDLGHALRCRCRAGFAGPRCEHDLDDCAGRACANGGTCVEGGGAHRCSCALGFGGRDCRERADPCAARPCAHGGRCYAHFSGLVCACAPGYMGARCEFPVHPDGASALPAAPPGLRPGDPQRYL
Description: SPR Biacore 8K, Ab captured on Protein A. The gist of the method: as §1

The target in experiment [3] is T3, mouse DLL3 (KACTUS, DLL-MM103) (mouse, UniProt O88516 33-490, limits assumed).
T3 construct: Bought
T3 sequence: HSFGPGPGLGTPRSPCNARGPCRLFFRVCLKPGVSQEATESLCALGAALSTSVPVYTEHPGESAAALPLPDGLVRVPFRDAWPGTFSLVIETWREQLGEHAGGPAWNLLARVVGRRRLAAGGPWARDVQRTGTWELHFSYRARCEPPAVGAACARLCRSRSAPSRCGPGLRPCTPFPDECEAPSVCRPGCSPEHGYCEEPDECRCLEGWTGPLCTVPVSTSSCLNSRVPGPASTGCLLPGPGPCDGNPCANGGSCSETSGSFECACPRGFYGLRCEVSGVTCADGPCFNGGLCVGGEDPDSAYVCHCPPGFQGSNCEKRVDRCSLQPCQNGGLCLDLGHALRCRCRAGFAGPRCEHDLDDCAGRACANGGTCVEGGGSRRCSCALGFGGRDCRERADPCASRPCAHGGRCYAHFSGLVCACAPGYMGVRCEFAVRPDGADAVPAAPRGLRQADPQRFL
In words: SPR Biacore 8K, Ab captured on Protein A. The gist of the method: as §1

In experiment [4] the target is T4, cynomolgus monkey DLL3 (KACTUS, DLL-RM103) (cynomolgus monkey, UniProt Q9NYJ7 27-492 (human entry), limits assumed).
T4 construct: Bought
T4 chain: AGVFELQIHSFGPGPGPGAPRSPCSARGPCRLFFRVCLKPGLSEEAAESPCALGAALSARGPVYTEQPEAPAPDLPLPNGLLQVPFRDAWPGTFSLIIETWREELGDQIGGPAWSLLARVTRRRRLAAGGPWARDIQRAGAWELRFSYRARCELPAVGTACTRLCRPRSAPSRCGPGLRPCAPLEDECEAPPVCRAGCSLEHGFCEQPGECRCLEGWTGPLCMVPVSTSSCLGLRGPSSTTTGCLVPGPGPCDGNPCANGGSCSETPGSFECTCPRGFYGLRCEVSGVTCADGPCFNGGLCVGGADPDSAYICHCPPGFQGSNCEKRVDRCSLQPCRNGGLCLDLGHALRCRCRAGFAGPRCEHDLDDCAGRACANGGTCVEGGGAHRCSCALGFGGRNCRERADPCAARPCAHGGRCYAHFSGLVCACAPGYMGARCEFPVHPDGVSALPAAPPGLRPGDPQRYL
In words: SPR Biacore 8K, Ab captured on Protein A. An outline of the steps: as §1

Experiment [5] addresses T5, hDLL3 (ECD)-strep twin, biotinylated (human, UniProt Q9NYJ7 27-492, biotinylated).
T5 construct: The entry carries a signal peptide (marked only by a dotted line); also called Biotinylated DLL3 antigen; human DLL3 protein
In words: ELISA, biotinylated antigen on streptavidin. How it is done:
(§2) Streptavidin (abcam, ab136200, 1 μg/mL) was plated at 100 μL/well, and the plates were incubated overnight at 4° C. The plates were washed 3 times with 250 μL of PBST solution (PBS containing 0.1% Tween 20) per well. The plates were blocked with 250 μL of 5% milk per well at 37° C. for 2 h. The plates were washed 3 times with 250 μL of PBST solution per well. Biotinylated DLL3 antigen (1 μg/mL) (SEQ ID NO: 9) was added, and the plates were incubated at 37° C. for 1 h. The plates were washed 3 times with 250 μL of PBST solution per well. Antibodies (maximum concentration 400 nM, serially diluted 4-fold) were formulated, and incubation was performed at 37° C. for 1 h. The plates were washed 6 times with 250 μL of PBST solution per well. […] The plates were washed 6 times with 250 μL of PBST solution per well. TMB (KPL, 5120-0077) substrate solution was added at 100 μL/well, and color development was performed at room temperature for 5-10 min. 1 M H₂SO₄ was added at 100 μL/well to stop the color development, and microplate reader (Molecular Devices, VERSA max) readings at 450 nm were taken.

Experiment [6] concerns the target T5, hDLL3 (ECD)-strep twin, biotinylated. In words: ELISA, biotinylated antigen on streptavidin, OD450. How it is done: as §2

T1 sequence (Q95LI8 22-105, chain 1 of 2): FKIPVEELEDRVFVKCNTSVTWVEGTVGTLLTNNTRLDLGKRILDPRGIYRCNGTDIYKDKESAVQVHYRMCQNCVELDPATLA
T1 sequence (Q95LI5 22-117, chain 2 of 2): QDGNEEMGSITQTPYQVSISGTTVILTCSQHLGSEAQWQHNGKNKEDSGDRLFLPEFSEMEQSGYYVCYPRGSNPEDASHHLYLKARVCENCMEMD

B1: hu110-I2C-Y body (bispecific antibody)
light: NIVMTQSPKSLAVSLGERATINCKASENVGIFVSWYQQKPGQSPKLLIYGASNRYTGVPDRFSGSGSATDFTLTISSLQAEDVADYYCGQSHSYPLTFGQGTKLEIKRTVAAPSVFIFPPSDEQLKSGTASVVCLLNNFYPREAKVQWKVDNALQSGNSQESVTEQDSKDSTYSLSSTLTLSKADYEKHKVYACEVTHQGLSSPVTKSFNRGEC
heavy: EVQLVQSGAEVKKPGASVKVSCKTSGYTFTDYYMNWVRQAPGQSLEWMGIINPYQGGTSYTQKFKGRVTITVDKSASTAYMELSSLRSEDTAVYYCARHFYDSSYLTYSTMDYWGQGTTVTVSSASTKGPSVFPLAPSSKSTSGGTAALGCLVKDYFPEPVTVSWNSGALTSGVHTFPAVLQSSGLYSLSSVVTVPSSSLGTQTYICNVNHKPSNTKVDKKVEPKSCDKTHTCPPCPAPEAAGGPSVFLFPPKPKDTLMISRTPEVTCVVVDVSHEDPEVKFNWYVDGVEVHNAKTKPREEQYNSTYRVVSVLTVLHQDWLNGKEYKCKVSNKALPAPIEKTISKAKGQPREPQVCTLPPSREEMTKNQVSLSCAVKGFYPSDIAVEWESNGQPENNYKTTPPVLDSDGSFFLVSKLTVDKSRWQQGNVFSCSVMHEALHNHYTQKSLSLSPGK
chain: not shown
notes: Format 2 (Y body: DLL3 Fab-Fc hole + CD3 scFv-Fc knob)
For B1, the Kd in experiment [1] worked out at 2.32 nM; in experiment [2], 0.125 nM; in experiment [4], 0.762 nM. Besides, the binding result in experiment [3] is on record as “no binding”. Besides, the EC50 in experiment [5] came to 0.07 nM. Further, the Emax in experiment [6] is 0.48.

B2: hu110-S107E-hot Ig (bispecific antibody)
light 1: NIVMTQSPKSLAVSLGERATINCKASENVGIFVSWYQQKPGQSPKLLIYGASNRYTGVPDRFSGSGSATDFTLTISSLQAEDVADYYCGQSHSYPLTFGQGTKLEIKGGGGSSGAPRFLTRPKASVVSVGKDATLSCQIVGNPFPQVSWEKDKQPVTAGVRFRLAQDGDLYRLKILDLQLSDSGQYVCRARNAHGEAFACLGLQVDAEA
heavy 1: EVQLVQSGAEVKKPGASVKVSCKTSGYTFTDYYMNWVRQAPGQSLEWMGIINPYQGGTSYTQKFKGRVTITVDKSASTAYMELSSLRSEDTAVYYCARHFYDSSYLTYSTMDYWGQGTTVTVSSGGGGSGIPPKIECLPIDISIDEGKVLTVASAFTGEPTPEVTWSTGGRKIHSQEQGRFHIENTDDSTTLTIKDVQKQDGGLYTLTLRNEFGSDSATVNIHIRSIDKTHTCPPCPAPEAAGGPSVFLFPPKPKDTLMISRTPEVTCVVVDVSHEDPEVKFNWYVDGVEVHNAKTKPREEQYNSTYRVVSVLTVLHQDWLNGKEYKCKVSNKALPAPIEKTISKAKGQPREPQVCTLPPSREEMTKNQVSLSCAVKGFYPSDIAVEWESNGQPENNYKTTPPVLDSDGSFFLVSKLTVDKSRWQQGNVFSCSVMHEALHNHYTQKSLSLSPGK
heavy 2: not shown
light 2: not shown
notes: Format 1 (Hot-Ig, Titin/Obscurin-replaced DLL3 Fab), DLL3 x CD3
As to B2, in experiment [1], the Kd was 39.6 nM, the koff worked out at 0.007 s⁻¹ and the kon worked out at 177000 M⁻¹ s⁻¹. Also, in experiment [2], the Kd stood at 0.113 nM, the dissociation rate constant (koff) was determined as 2.82e-05 s⁻¹ and the kon stood at 249000 M⁻¹ s⁻¹. For the same molecule, in experiment [3], the binding result is reported as “no binding”. In experiment [4], the Kd stood at 0.523 nM, the koff was determined as 6.43e-05 s⁻¹ and the kon was found to be 123000 M⁻¹ s⁻¹. Further, the EC50 in experiment [5] worked out at 0.11 nM. In experiment [6], this molecule returned an Emax of 0.45.

B3: hu110-I2C-hot Ig (bispecific antibody)
light 1: B2 light 1
heavy 1: B2 heavy 1
heavy 2: not shown
light 2: not shown
notes: as for B2
Regarding B3, the Kd amounted to 1.5 nM in experiment [1], 0.119 nM in experiment [2] and 0.616 nM in experiment [4]. The binding result in experiment [3] is recorded as “no binding”. This molecule gave an EC50 in experiment [5] of 0.08 nM. The molecule further gave an Emax in experiment [6] of 0.48.

These data come from patent US20250376519A1 (JIANGSU HENGRUI PHARMACEUTICALS, published 2025).
